{"source": "patent US20240010673A1", "about": "(ARIZONA BOARD OF REGENTS ON BEHALF OF THE UNIVERSITY OF …, published 2024)", "biological_target": "the molecule itself", "test": "cell-based or functional assay"}
{"protein": "P-C24-P (other) MGSGSGSAPQMLRELQETNAALQDVRELLRQQVKEITFLKNTVMESDASGASYRDPMGAGAGAGPEGAGAGAGPEGAGAGAGPEGAGAGAGPEGAGAGAGPEGAGAGAGPEGAGAGAGPEGAGAGAGPEGAGAGAGPEGAGAGAGPEGARMPTSYRDPMGAGAGAGPEGAGAGAGPEGAGAGAGPEGAGAGAGPEGAGAGAGPEGAGAGAGPEGAGAGAGPEGAGAGAGPEGAGAGAGPEGAGAGAGPEGARMPTSYRDPMGAGAGAGPEGAGAGAGPEGAGAGAGPEGAGAGAGPEGARMPEFAPQMLRELQETNAALQDVRELLRQQVKEITFLKNTVMESDASGKLAAALEHHHHHH", "values": [{"measurement": "half-life of P coiled-coil cross-linked hydrogel in bioerosion test at 25 C", "result": "~2.6", "unit": "h"}]}
